From patent US20200096514

B1: LasA protease of Pseudomonas aeruginosa (secreted, in culture supernatants) (protein)
chain: APPSNLMQLPWRQGYSWQPNGAHSNTGSGYPYSSFDASYDWPRWGSATYSVVAAHAGTVRVLSRCQVRVTHPSGWATNYYHMDQIQVSNGQQVSADTKLGVYASNINTALCEGGSSTGPHLHFSLLYNGAFVSLQGASFGPYRINVGTSNYDNDCRRYYFYNQSAGTTHCAFRPLYNPGLAL
B2: recombinant mouse neutrophil elastase (protein)
chain: SEIVGGRPARPHAWPFMASLQRRGGHFCGATLIARNFVMSAAHCVNGLNFRSVQVVLGAHDLRRQERTRQTFSVQRIFENGFDPSQLLNDIVIIQLNGSATINANVQVAQLPAQGQGVGDRTPCLAMGWGRLGTNRPSPSVLQELNVTVVTNMCRRRVNVCTLVPRRQAGICFGDSGGPLVCNNLVQGIDSFIRGGCGSGLYPDAFAPVAEFADWINSIIRSHNDHLLTHPKDREGRTN

How the values were obtained:
LAS-Q = biological target: T1, LAS-Q (not fully specified)
T1 chain: GLGGGAGK

ELA-Q = biological target: T2, ELA-Q (not fully specified)
T2 chain: GAAFAGK

Protein	cleavage of LAS-Q by P. aeruginosa culture supernatants (fluorescence) set against LasA content by Western blot (LAS-Q)	reversal of FRET-quenched fluorescent signal (cleavage) (ELA-Q)	reversal of FRET-quenched fluorescent signal (cleavage) (LAS-Q)
B1	the non-cleaving strains lacked LasA in their supernatant, whereas supernatant from the substrate-cleaving strains contained substantial levels of LasA protein		
B2		ELA-Q and-to a lesser extent, LAS-Q-are each cleaved by neutrophil elastase	ELA-Q and-to a lesser extent, LAS-Q-are each cleaved by neutrophil elastase
